Reference: the DeepSol protein solubility set

Experiment: soluble on expression in E. coli; label from the status in PepcDB or PDB records

Sequence	soluble on expression in E. coli
MSLLTLAFNPQPRAKTYCSGPILRVSGVWAVKILYIVLDGAADSPTSPRKTLEEASKPNIDSLGSHAVCGMVYTVKPGVAPQSDYATLSLLGYNPDEYYPGRGPLEAFGAGIEMRRGDIALRANFATVDPGTLRIIDRRVGRSLTSREARELASAVDGMELEDGEGTALFRATIGHRGVLVLRHRSKPLSDAISNTDPAYERRGRFSVALEKYEPFIKLSNPLVEDEAAVLAARMLNEFTLKAVEILDSHPVNLAREKRGLLKANAILSRDAGGLPEEKPPSFQERFGLRGASIVEMVVERGISRYIGLDDIRVEIEGRAREEVYREEAARAVEALETHDLVYVHLKGPDEPGHDGSFEGKIRAVEDIDKHFFAPLLDRLSSAGLEPAFVVTSDHATPWDVGAHSGDPVPLMISHQSIQGSIGKFSETVCLRGRLGTIIGGYRIIPKTLSLLAGLEHHHHHH	soluble
MSLLAEKLQINSITPHPSVEYWSVCKVEALFETPFLELVYRATQVHRKHFNPRAIQLSTLMSIKTGGCPEDCSYCPQSARYHTGVQNQQLLDVDEIVAKAKIAKARGAGRFCMGAAWRGPKPKDIEKVTEIIKAVKSLGLETCGTFGLLQDGMAEDLKEAGLDYYNHNLDTAPEHYAEVIGTRRFDDRLSTLGKVRKAGLKVCCGGIVGMNETRKERAGLIASLANLDPQPESVPINQLVKVEGTPLADAEELDWTEFVRTIAVARITMPKSYVRLSAGRSGMTEEMQAMCFMAGANSIFYGDKLLVTDNPEEDGDQLLMAKLDLEPETAENKKLEGHHHHHH	soluble
MSLSDFHEVRFPLDVALRGSGGPVRRTEIVTLASGQEHRNSRWADSRRRYDAGLGMRTLDALHAVLSFFEERRGRMYGFRYRDRVDYRSGPPSQAPAPIDQAIGTGDGATRVFALAKTYGGGPQAYRRTIAKPVAGSVRVAVNGVELAAGAVSCDPATGRLTFAPGAVPPPGAAITAGFEFDVPVRFDTDELSIDMAAFTAGEVPRIPLIEIVLEGHHHHHH	soluble
MLAQQRLDFEFRPMTAADVGNAHELSIALKWPHRLEDWAMLQRVAQGFVAVRNGRLIGSAFACHQGEFSTIGLVIVSDDYQGKGIGRKLMELAVGSIPPRTAILNATLAGAPLYEKMGFVSFGEIQQRQGQAQLPDATLLTAEESCRVLSEADHDRVLELGNAGSGLDRSVTLGDLLNNLEHAVGIDRDGQLQAFALLRPFGRGLCIGPVVAQTVEQARHMIEHLLARVPYAFVRIDIPTHCGLADWLEAAGLKRVDSVTCMSMGAVPQAREGVSQFALITQAIG	not soluble
MKYILVTGGVISGIGKGIIASSIGTILKSCGLRVTAIKIDPYINIDAGTFSPYEHGEVFVLNDGGEVDLDLGNYERFLDINLYKDNNITTGKIYQHVINKERRGDYLGKTVQVVPHITDAVQEWVMNQAKVPVDGNKEEPQICVIELGGTIGDIEGMPFVEAFRQFQFKAKRENFCNIHVSLVPQLSATGEQKTKPTQNSVRALRGLGLSPDLIVCRSSTPIEMAVKEKISMFCHVNPEQVICIHDVSSTYRVPVLLEEQSIVKYFKERLHLPIGAHHHHHH	soluble
MGSDKIHHHHHHMSKPTQYGIIGCGMMGQEHLRNIALLPDARVAAIFEPNALMQAEAAKFAPDAQFVDSVEALLAIAELDCIMIASPNFRHVEQLETLASQNPLPVLVEKPLFTTLDDLNRIEEFAAHYPAPVWVAMEYRYMPPITAFLNEADTATGGIKMLTVREHRFPFLSKVDDWNRFNAQSGGTFVEKCCHFFDLMRLALKSEPVRIMASGGQDVNHLDERYDGSVPDILDNGYVIVEFESGARAMLELCMFAEGSKYQEDVSAVGPNGKVEAFVPGPGRFWPSHLGDAPVPKLVLSPRNPKGPEERDIPVDPTILDAGDHNGSTFYQHQKFLELVRGERSTPEVSLNDGKMAVLMGLAAQMSIAENRTVEISELL	not soluble
EALSSKVQQLERSIGLKDLAMADLEQKVLEMEASTYDGVFIWKISDFPRKRQEAVAGRIPAIFSPAFYTSRYGYKMCLRIYLNGDGTGRGTHLSLFFVVMKGPNDALLRWPFNQKVTLMLLDQNNREHVIDAFRPDVTSSSFQRPVNDMNIASGCPLFCPVSKMEAKNSYVRDDAIFIKAIVDLTGL	soluble
MKRHFETTRRIVIKVGTSSLVQTSGKINLSKIDHLAFVISSLMNRGMEVILVSSGAMGFGLDILKMDKRPQEISQQQAVSSVGQVAMMSLYSQIFSHYQTHVSQILLTRDVVVFPESLQNVTNSFESLLSMGILPIVNENDAVSVDEMDHKTKFGDNDRLSAVVAKITKADLLIMLSDIDGLFDKNPNIYDDAVLRSHVSEITDDIIKSAGGAGSKFGTGGMLSKIKSAQMVFDNNGQMILMNGANPRDILKVLDGHNIGTYFAQGKLEHHHHHH	not soluble
MSIFPTRDSRDLSSRRRSLIDWEFPQMALVPLDQVFDWAERSRQSLHDDIVNMHRNLFSLEPFTAMDNAFESVMKEMSAIQPREFHPELEYTQPGELDFLKDAYEVGKDGRLHFKVYFNVKNFKAEEITIKADKNKLVVRAQKSVACGDAAMSESVGRSIPLPPSVDRNHIQATITTDDVLVIEAPVNEPNYKAIKLSPEKGLAIQPSEVQERQLAVKNKEGLEIVTAEDGSKKIHLELKVDPHFAPKDVKVWAKGNKVYVHGVTGKEEKTENASHSEHREFYKAFVTPEVVDASKTQAEIVDGLMVVEAPLFK	soluble
MGSDKIHHHHHHVEYPLPAKNSNLVGENQYYVVPEGKLTLEAIATKFQLGLTNLLEANPGVDPFLPKPGSTLVIPHQLILPNAPREGIVINVAEMRLYYYPKGKNIVEVLPIGIGQIGKDTPEKWVTTVQRKRANPTWTPTPRIRKEYLAKGEVLPAVWPAGPDNPMGLFALYIGNLYAIHGTNATFGIGLRISQGCIRLRDADIEHLFNSVPEGTRVEFTNQPIKASEEPDGNRYLEVHQPLSRTMAEYESAEPVGLSMHRDIAKFVAHADTDSFVLKRLLEQRNGIPTRINQ	not soluble
MGCMIQSFRCKSTQAMFEGECPQRFSAIQAVAERKLAQLEAAQTLDFLRSPPGNRLEKLAGDREGQWSIRINAQWRICFTWSDLDPADVEIVDYH	not soluble
MAHHHHHHMSSIKINKDESKRVHIWIKSAIGTPNRRQFKHKNIMYPYFRMYKSPYRARDSRTRQAFWPCVDKYPWHTHQKRWVDIEQLNLKFFSEFTNKDPSRKNLFETCHTLPFNGINCLFWNPIYLNSHKFFLKKNKKDANRGEDNNMEENDDVKENTIEGNDDVKEHAIEGYTNNNVNNHNDIINQYDENKKVIKINDFHYIVDKDVKNNTYFYLKYIKYSMRPFRGKLIGDIYLNQTKIRHNISAKGFVNGEWKYSYPHININKKIEHISLNNNLTSNDIYSNNINNLVIVDKYTYRPPLPKSYIFQKDIL	not soluble
MALEKLLKVQERLWAPEDLRKKANLQDYAAEYRKSLEDPEGFWGAWARRFHWEKPFEKVLEWTLPEHRWFLGGTTNAVYNALERNVERGLRNKVALLYLAEDGREEKLTYGELLDRVRRLATGLRRLGVGKGDRVVIYMPLTLEGVLAMLATAYIGAIHSVVYAGLGVSALRERILDAQAKLLIAGDVSFRRGKGVDLRSIAEEAIRDLPLKVVWFQRAYKAELAEGHYDFHELLWGNPPEARAEMVDAEHPLFILYTSGSTGKPKGVVHVHGGYMVGTTYHLRTFFDVKDEDVFWATSDIGWIVGHSYIVYAPLLEGITSVLREGAPDHPDPGALWQAVERYRVNVMFTAPTAVRMFMKYGPEWPRKYDLSSLRLLAVAGEPLNPEALKWAYEHLVDGGRRGFVADNWWQTELGGPTLGTPLVLPAKPGFAGVALPGVEAEVVDEEGRPVPPGQGGLLVLKRPFPHMMRTVWGNHERYLRYWQEVPGGVYASGDVASKDEEGYFSVLGRADDVLNVAGHRIGTADVESALVSHPAVAEAAVIGVPDPLKGEAIKAFVVLRLGQTPSEELKEALVQHVRRELGPIATPSEVVFLDKLPKTRSGKILRRLLKAQALGKDPGDLSTLEE	soluble
MSASQKEGKLSTATISVDGKSAEMPVLSGTLGPDVIDIRKLPAQLGVFTFDPGYGETAACNSKITFIDGDKGVLLHRGYPIAQLAENASYEEVIYLLLNGELPNKAQYDTFTNTLTNHTLLHEQIRNFFNGFRRDAHPMAILCGTVGALSAFYPDANDIAIPANRDLAAMRLIAKIPTIAAWAYKYTQGEAFIYPRNDLNYAENFLSMMFARMSEPYKVNPVLARAMNRILILHADHEQNASTSTVRLAGSTGANPFACIAAGIAALWGPAHGGANEAVLKMLARIGKKENIPAFIAQVKDKNSGVKLMGFGHRVYKNFDPRAKIMQQTCHEVLTELGIKDDPLLDLAVELEKIALSDDYFVQRKLYPNVDFYSGIILKAMGIPTSMFTVLFAVARTTGWVSQWKEMIEEPGQRISRPRQLYIGAPQRDYVPLAKR	soluble
MRYALAACLLLLAASSFVDAKKKKIADDELGELLDNIDADEEKKSVEPAKNPCEDHQCGWGKECVVGKKGEPTCECISKCPELDGDPMDKVCANNNQTFTSLCDLYRERCLCKRKSKECSKAFNAKVHLEYLGECKKLDECTEEHMAQFPERMADWLFQVMKELKKRRELHKLEWEELLSEAENDDEKKHVYPVIWKFCELDTKPHDKSVSHHELIPITAPVIPMESCIKPFLEGCDANNDGNISIKEWGKCLGLKEGEIQERC	not soluble
MGSDKIHHHHHHMNIPIKTLQCFLTLVETENFTRAAQKCFITQPTLSKIIQRLEESLGETLLIRNNQKVELTQAGQLFEHSAREILGQWHRLQEDMSNLSGLKSGRLRLGVCPMMSSLIIGLLTSYRKRYPGVELQMYEYGGFGCEQALLNNSLDIAFTALPTTHETELINQPLTKYPLLACLPEAHPLAAKSYLSWQDFEPYPFILYNEDFSLAKLINRLSRKAGVQLNIAFRSGQWDFLATMVEADMGLAILPEPICQKLSNSKLVFRPMQPALTWDLALIWRQNLPLTPAANALLELSKQKA	not soluble
MTATSNSAPLAGGSLSSSATAQPPQPPPGHQQQHPLPQIYDSQMQYYYGSSMPNQPIPTYTAQNGAPQQFGTPPYYQDANGQFGQVPAQQQMMTAGHPYFYMAQPQQGGQHVAQSGQPQIFYYQQPLGQMAQQAAPMYFHPMQAASTPMLSEQMSMMPQIQSTNPQQSEQLRKSGAQISTTRTVPLTSSTPLPTSREYETVQRDRNRNSQSRYQCPIEHDDLPIDEISKITIDNHNDDTMSAEKENRFNKNRVEKLGRRGFAKPEVDSQLPHNFKTRLCMTHAAGINPCALGARCKFAHGLKELRASDIPTRYPNNKYKTKLCKNFARGGSGVCPYGLRCEFVHPSDTEFQNIPPYQRKMVEEHDSIPEDYVVARYQPRFMHTSGKATTPTKVTLKQRNVAGSMMCLSNTGRDLEAGGDFNHPEINENDLPPHLRRIRRGNPPVTRSRPSFSTKWTSVENLGLRGHY	not soluble
MGSDKIHHHHHHMKRGLNLDQWVTWPGEDQWGDAKTILPYPEWRKFLGDDDLRALKGAGFDFLRMPVDPSPFLSDQTAALRDDLYASVLDSVRMINRAGLKVIVDMHLIPAGGSRKIGMAQVMDDPRTFDRYLDMVRKMARTLAGEDPEKVAFEPMNEPIVDCDSDGTSLWPDRQRELFAAARSSATKLTLVLTGACYSAASSLEKIDPKAISDDNVIWTFHSYDPFLLTHQGATWAGDFIPYVTGLPYPLNAVPKAQLDATLDIIRARIKAEAPWTRQSGLLAYLDEQVASMDSPDKLLGLMDAPFKKVEAWAKANGVKPENITLGEFGMIRQEYGNAYVMPAQYRAAYVRDMIARAEAHGFSWSVWSYGGAFGIVDAFNGDKGEPDVMDVIRSLH	not soluble
TLLPQVQEVAYNQMANAGYEGAVVAIKPSTGEILAMASTPSYDPSAIVNPDTAEQTWAALNADPGNPLLNHATQETLPPGSTFKVITTAAGLNAGYGPGSMLTGQDRITLPDGITTLENYAGQTCAGSQNVTLATAFQYSCNTAFVQMGIDVGKEKFDEAAHAFGVNDRYDLGVDMAPGTIGDVSDPSARGQSSIGQRDVAMSVLHNAVVAATVANGGKRMEPHLVNRIVGQDLKVIKETKPHQINEAVTPEVAATLTDLMRLSERHTAGYTGADIASKTGTAEHGEDSRNSNPHAWYIAFGPSANADVAVAVVVKNGGDAGQAATGGSVAAPIGRAVIAAAQAALAARG	not soluble
